From the supplement of paper PMC11865577

Tested on: TO-N3-2 (biotin conjugate)
Test: pull-down binding Z-score (relative to library population); higher = stronger binding
Settings: RNA library: Library-2
Outline: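 Streptavidin beads bearing 100 pmol of a biotin-conjugated small molecule were incubated for 60 min at 25 °C with 1 μg of heat-folded, Cy5- or Cy3-end-labelled RNA library in phosphate/NaCl/KCl buffer. Hot SDS eluted the RNA that stayed bound after three washes, and this RNA was hybridised for 20 h at 55.5 °C to a DNA barcode microarray. Binding was expressed as a Z-score against the library mean and standard deviation, after subtraction of a beads-only signal and trimmed averaging of barcoded replicate probes.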

| Sequence | pull-down binding Z-score |
| --- | --- |
| AAAAACACCCAAGAAGUUUUU | -0.932 |
| AAAAAUCUUAGGGAAUUUGUGUUUAAGAAUAUUGAUGGUUAUUUUAAAAUAUAUUCUAAGCACACGCCUAUUAAUUUAGUGCGUGAUCUCCCUCAGGGUUUUU | -0.421 |
| AAACCCGGUAAUUUUAACAAAGACUUCUAUGACUUUGCUGUGUCUAAGGGUUU [SHAPE_invivo_SARS-CoV-2_Motif_278] | -0.917 |
| AAACCUAAUGAAUUAUCUAGAGUAUUAGGUUU [SHAPE_invitro_SARS-CoV-2_Motif_132] | -1.06 |
| AAACGAACUAAAUAUUAUAUUAGUUUUUCUGUUU | -0.324 |
| AAACUCAAACCCGUCCUUGAUUGGCUUGAAGAGAAGUUUAAGGAAGGUGUAGAGUUU | -0.346 |
| AAACUUGUGCCCUUUUGGUGAAGUUUUUAACGCCACCAGAUUUGCAUCUGUUU [SHAPE_invivo_SARS-CoV-2_Motif_425] | -0.751 |
| AAAGGACUGGUAUGAUUUUGUAGAAAACCCAGAUAUAUUACGCGUAUACGCCAACUUAGGUGAACGUGUACGCCAAGCUUU | 0.0415 |
| AAAGUGCAGUGAAAAGAACAAUCAAGGGUACACACCACUGGUUGUUACUCACAAUUUUGACUUCACUUU | 0.0106 |
| AAAGUGCUUUUGUUAAUUUAAAACAAUUACCAUUUU [SHAPE_invivo_SARS-CoV-2_Motif_363] | -1.63 |
| AAAUAAGUACGAUACUUACCUG [U1snRNP5ss-3] | 0.324 |
| AAAUAAGUAUGAUACUUACCUG [U1snRNP5ss-4] | -0.672 |
| AAAUUACCAUUUCAUCUUUUAAAUGGGAUUU | -1.21 |
| AAAUUCUUGGAACUGUUUCUUGGAAUUU | -1.37 |
| AAAUUGCCGAUAAGUAUGUCCGCAAUUU | -1.13 |
| AAAUUUACAAAACACCACCAAUUAAAGAUUUUGGUGGUUUUAAUUU [DMSMaPseq_invitro_SARS-CoV-2_Motif_425] | -0.725 |
| AAAUUUACAAGAAUUU [SHAPE_invivo_SARS-CoV-2_Motif_380] | -1.48 |
| AAAUUUUUGGCUUUGUGUGCUGACUCUAUCAUUAUUGGUGGAGCUAAACUUAAAGCCUUGAAUUU [SHAPE_invivo_SARS-CoV-2_Motif_45] | -0.994 |
| AACAAAUGUGUCAAUUUCAACUUCAAUGGUUUAACAGGCACAGGUGUU | -0.968 |
| AACACCAGUUUACUCAUUCUUACCUGGUGUU | -1.46 |
| AACACUUCCCACAGAAGUGUU | -0.817 |
| AACAGCAGACAACCCUUAAGGGUGUAGAAGCUGUU | -0.918 |
| AACAGGAGUCACCUUUUGUU | -0.716 |
| AACAUUAACCUCCACACGCAAGUUGUGGACAUGUCAAUGACAUAUGGACAACAGUUUGGUCCAACUUAUUUGGAUGGAGCUGAUGUU | -0.533 |

| Sequence | pull-down binding Z-score |
| --- | --- |
| AACAUUUACUUAUGCAUCAGCAUUGUGGGAAAUCCAACAGGUUGUAGAUGCAGAUAGUAAAAUUGUU [DMSMaPseq_invitro_SARS-CoV-2_Motif_222] | -0.134 |
| AACCAGUUAACUGGUU [SHAPE_invivo_SARS-CoV-2_Motif_126] | -1.24 |
| AACCAUACAGGUGUUGUUGGAGAAGGUU [DMSMaPseq_invitro_SARS-CoV-2_Motif_31] | -0.444 |
| AACCCUCACCUUAUGGGUU | -1.48 |
| AACGAACUUUAAAAUCUGUGUGGCUGUCACUCGGCUGCAUGCUUAGUGCACUCACGCAGUAUAAUUAAUAACUAAUUACUGUCGUU | -0.131 |
| AACGGGGCGGGCCCUGGGCGGGGUAA [G4_2A2_VEGF-Pu22-mt2] | 5.33 |
| AACGGGGCGGGCCGGGGGCGGGGUAA [G4_2A2_VEGF-Pu22] | 4.88 |
| AACGGGGCGGGCCUCGGGCGGGGUAA [G4_2A2_VEGF-Pu22-mt3] | 5.08 |
| AACGGGGCGGGCCUGGGCGGGGUAA [G4_2A2_VEGF-Pu22-del] | 5.22 |
| AACGGGGCGGGCCUUGGGCGGGGUAA [G4_2A2_VEGF-Pu22-mt] | 5.19 |
| AACUACUAUUCAAACAAUUGUUGAGGUUCAACCUCAAUUAGAGAUGGAACUUACACCAGUUGUUCAGACUAUUGAAGUGAAUAGUUUUAGUGGUU | -0.981 |
| AACUGAAAGUAAACCUUCAGUU | -1.3 |
| AACUGCUUUUGGCUUAGUUGCAGAGUGGUU | -0.255 |
| AACUGGUAAUACACUUCAGUGUAUAAUGCUAGUU | -1.89 |
| AACUGUGAUGUUGUAAUAGGAAUUGUCAACAACACAGUU | -1 |
| AACUUCUUAAGAGUGCUUAUGAAAAUUUUAAUCAGCACGAAGUU | -0.771 |
| AACUUUAAUGUU [SHAPE_invitro_SARS-CoV-2_Motif_263] | -1.33 |
| AACUUUAGCUUGUUUUGUGCUUGCUGCUGUU | -0.708 |
| AAGAAAGUUGAUGGUGUUGUCCAACAAUUACCUGAAACUUACUU [DMSMaPseq_invitro_SARS-CoV-2_Motif_358] | -1.44 |
| AAGAAGCUGCGCUGUGCACCUUUUU [DMSMaPseq_invitro_SARS-CoV-2_Motif_178] | 0.126 |
| AAGAAGGUCAAAUCAAUGAUAUGAUUUUAUCUCUUCUU | -1.06 |
| AAGACUCAUCUCUAUGAUGGGUUUU | -1.46 |
| AAGAGAAAGUCAACAUCAAUAUUGUUGGUGACUUUAAACUU | -0.494 |
| AAGCUGAUGAGUACGAACUUAUGUACUCAUUCGUUU | -0.895 |

| Sequence | pull-down binding Z-score |
| --- | --- |
| AAGGAGCUGGUGGCCAUAGUUACGGCGCCGAUCUAAAGUCAUUUGACUUAGGCGACGAGCUUGGCACUGAUCCUU [DMSMaPseq_invitro_SARS-CoV-2_Motif_14] | 0.492 |
| AAGGAUGCUACUCCUU | -1.36 |
| AAGGCUGAUGAAACUCAAGCCUU | -0.106 |
| AAGGGAGGGGCGGGUCGGGAA [G4_2A2_NRAS] | 5.24 |
| AAGGGGGCCGUGGGGUGGGAGCUGGGGAA [G4_2A2_BCL2] | 4.88 |
| AAGGUAAAACCAACAGUGGUUGUUAAUGCAGCCAAUGUUUACCUU [DMSMaPseq_invitro_SARS-CoV-2_Motif_60] | -0.952 |
| AAGGUAAGAGGGAUACUUACCUG [U1snRNP5ss-26] | -0.262 |
| AAGGUACAGCAGAUACUUACCUG [U1snRNP5ss-22] | 0.0449 |
| AAGUGCUUUUGUUAAUUUAAAACAAUUACCAUUU [SHAPE_invitro_SARS-CoV-2_Motif_354] | -0.811 |
| AAGUUAAUUUUCCUCUGGCUGUUAUGGCCAGUAACUU [SHAPE_invivo_SARS-CoV-2_Motif_506] | -0.963 |
| AAGUUUGUUCGCAUUCAACCAGGACAGACUU [DMSMaPseq_invitro_SARS-CoV-2_Motif_187] | -0.349 |
| AAUAACUUACCUUUUAAGUUGACAUGUGCAACUACUAGACAAGUUGUU | -1.52 |
| AAUAGAAGAAUUAUUCUAUU [SHAPE_invitro_SARS-CoV-2_Motif_349] | -1.81 |
| AAUAUUGCUUUGCUUGUACAGUAAGUGACAACAGAUGUUUCAUCUCGUUGACUUUCAGGUUACUAUAGCAGAGAUAUU [DMSMaPseq_invitro_SARS-CoV-2_Motif_488] | 0.237 |
| AAUCAAAAAGAGUUGAUU [DMSMaPseq_invitro_SARS-CoV-2_Motif_439] | -1.22 |
| AAUCAUACAUCACCAGAUGUUGAUU [SHAPE_invitro_SARS-CoV-2_Motif_454] | -0.903 |
| AAUGAGUUUUACGCAUAUUUGCGUAAACAUU | -1.23 |
| AAUGUAGUAGAAUUAUACCUGCACGUGCUCGUGUAGAGUGUUUUGAUAAAUUCAAAGUGAAUUCAACAUUAGAACAGUAUGUCUUUUGUACUGUAAAUGCAUU | -0.209 |
| AAUGUUUUAUUCUCUACAGUGUUCCCACUUACAAGUUUUGGACCACUAGUGAGAAAAAUAUU [DMSMaPseq_invitro_SARS-CoV-2_Motif_260] | -0.866 |
| AAUUAUAAAUUACCAGAUGAUUUUACAGGCUGCGUUAUAGCUUGGAAUUCUAACAAUCUUGAUUCUAAGGUUGGUGGUAAUUAUAAUU | -0.712 |
| AAUUAUGAAGAUUUACUCAUUCGUAAGUCUAAUCAUAAUU | -0.858 |
| AAUUGAUUCUUACUUUGUAGUUAAGAGACACACUUUCUCUAACUACCAACAUGAAGAAACAAUU | -0.614 |
| ACAACAACCAUAAAACCAGUUACUUAUAAAUUGGAUGGUGUUGU | -1.37 |
